Four molecules from patent publication US20160046707A1 (EISAI R AND D MANAGEMENT, published 2016) can be followed below.

In one assay the target is T1, recombinant human CCL16 (human, UniProt O15467 24-120).
T1 construct: also called HCC-4
T1 sequence (looked up): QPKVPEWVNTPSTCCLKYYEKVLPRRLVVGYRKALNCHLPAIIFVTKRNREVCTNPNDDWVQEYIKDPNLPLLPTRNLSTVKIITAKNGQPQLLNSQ
As to the kind of experiment: SPR (Biacore): antibody captured on anti-human Fc, 100 nM chemokine injected. How it is done: We used Biacore™ analysis to test whether HC2/LK3 and HC2/LC3 cross-react with CCL16. Monoclonal mouse anti-human Fc was immobilized on all four flow cells of a CM5 chip at a flow rate of 25 μl/min with HBS-EP buffer containing 0.2 mg/mL BSA. Subsequently, 50 μl of a 1 μg/ml solution of chimeric, HC2/LC3, or HC2/LK3 antibody in HBS-EP buffer with 0.2 mg/ml BSA was injected over flow cells 2, 3, and 4, respectively. 150 μl of a 100 nM solution of CCL20 or CCL16 in HBS-EP buffer (or buffer alone) with 0.2 mg/ml BSA was then injected over all four flow cells at a flow rate of 40 μl/min. Dissociation followed for 20 min. Flow cell 1 (anti-human Fc antibody alone) was used as a reference for all flow cells.
Under these conditions, human CCL20 bound to the chimeric (FIG. 13A), HC2/LC3 (FIG. 13B), and HC2/LK3 (FIG. 13B) antibodies captured on the chip with similar strength.
Background: SPR reads the build-up and loss of mass on a sensor chip optically.

Assay [1] deals with T2, human CCL20 anchored via a His-tag (human, UniProt P78556 27-96).
T2 construct: Construct not described; also called His-tag anchored CCL20; not shown: His-tag
T2 sequence (P78556 27-96 limits assumed): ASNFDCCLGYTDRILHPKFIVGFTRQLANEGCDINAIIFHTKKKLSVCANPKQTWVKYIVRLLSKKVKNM
As to the kind of experiment: ELISA on His-tag anchored human CCL20, antibody titrated (x axis 'Ab conc. (ug/ml)', falling from left to right), Abs 450. In general terms: An ELISA detects its analyte on a solid surface through an enzyme-linked reagent.

Assay [2] addresses T3, rhesus CCL20-secreted alkaline phosphatase (SEAP) fusion (rhesus monkey).
T3 construct: also called rCCL20; rhesus CCL20-SEAP; not shown: the SEAP reporter (cDNA from Clontech pSEAP-Enhancer) and its junction to CCL20
T3 chain: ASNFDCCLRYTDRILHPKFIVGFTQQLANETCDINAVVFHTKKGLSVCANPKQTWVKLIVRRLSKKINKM
As to the kind of experiment: ELISA on CCL20-SEAP, Abs 450; x axis 'ug/ml' in 4-fold steps down from 10, taken as the antibody concentration as in FIG. 11C.

Assay [3] addresses T4, rat CCL20-secreted alkaline phosphatase (SEAP) fusion (rat, UniProt P97884 27-96; P05187 23-511). The assay is described as above.
Assay [4] has as its target T5, mouse CCL20-secreted alkaline phosphatase (SEAP) fusion (mouse, UniProt O89093 28-97).
T5 construct: Expressed in HEK293E, used as culture supernatant; also called SEAP-tagged mouse CCL20; mCCL20; not shown: secreted alkaline phosphatase (SEAP), cDNA from pSEAP-Enhancer vector (Clontech)
T5 sequence: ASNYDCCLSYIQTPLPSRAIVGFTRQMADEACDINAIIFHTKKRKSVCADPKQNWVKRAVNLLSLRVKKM
As to the kind of experiment: ELISA (fluorescent HRP substrate): CCL20-SEAP captured on anti-alkaline phosphatase in 5-fold dilutions from 20 nM (x axis, nM), antibody at 1 ug/ml. As to the method: To test whether the chimeric and humanized antibodies can bind to mouse, cynomolgus, or rhesus macaque CCL20 orthologs, we used ELISA assays as illustrated in FIG. 15. Recombinant secreted alkaline phosphatase (SEAP)-chemokine fusion proteins were engineered as described in Example 2, expressed and purified for all of the CCL20 orthologs tested. Nunc MaxiSorb flat-bottom black plates were coated with 1 μg/ml mouse anti-placental alkaline phosphatase antibody (Pierce, cat# MA1-19354) in 50 mM sodium bicarbonate, pH 9.4, overnight at 4° C. Plates were then blocked using 1× phosphate buffered saline with Tween-20 (PBST) with 5% bovine serum albumin (BSA) for 2 hours at room temperature. 20 nM SEAP-CCL20 fusion proteins were serially diluted 5-fold in Opti-MEM medium (Invitrogen). Chimeric and humanized (HC2/LC3 and HC2/LK3) antibodies were diluted to 1 μg/ml in 1×PBST with 5% BSA, added to the plates, and incubated for 1 hr at room temperature. The plates were then washed with 1×PBST with 5% BSA three times. […] QuantaBlu fluorescent HRP substrate (Pierce cat#15169) was added for detection of bound antibody by measuring fluorescence in a Molecular Devices M5 (Excitation 325 nm/Emission 420 nm) plate reader.
While the hamster anti-mouse CCL20 antibody 2F5-5 MAb bound mouse CCL20 with a 50% effective dose (EC₅₀) of 64 pM (data not shown), neither the chimeric nor humanized anti-human CCL20 antibodies bound detectably to mouse CCL20 or rat CCL20 under the conditions described above. By contrast, both the chimeric and humanized antibodies effectively bound to human, rhesus, and cynomolgus CCL20 (FIGS. 16A-C, 17A and B).

Assay [5] has as its target T6, human CCL20-secreted alkaline phosphatase (SEAP) fusion (human, UniProt P78556 27-96).
T6 construct: also called hCCL20; human CCL20-SEAP; not shown: secreted alkaline phosphatase (SEAP), cDNA from pSEAP-Enhancer vector (Clontech)
As to the kind of experiment: ELISA on CCL20-SEAP, Abs 450; x axis 'ug/ml' in 4-fold steps down from 10, taken as the antibody concentration as in FIG. 11C.

For assay [6], the target named is T3, rhesus CCL20-secreted alkaline …. The description is as above.
The target of assay [7] is T7, cynomolgus CCL20-secreted alkaline phosphatase (SEAP) fusion (cynomolgus monkey).
T7 construct: also called cCCL20; cynomolgus CCL20-SEAP; not shown: the SEAP reporter (cDNA from Clontech pSEAP-Enhancer) and its junction to CCL20
T7 chain: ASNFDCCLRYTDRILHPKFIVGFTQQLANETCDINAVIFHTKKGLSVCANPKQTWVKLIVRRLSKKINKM
Described as above.

The target of assay [8] is T4, rat CCL20-secreted alkaline phosphatase …. The assay is described as above. The source holds these as a separate data set.

Where two headings read alike, the source gives them in different places.

T4 sequence (P97884 other isoform, or with tags, fused parts or gaps): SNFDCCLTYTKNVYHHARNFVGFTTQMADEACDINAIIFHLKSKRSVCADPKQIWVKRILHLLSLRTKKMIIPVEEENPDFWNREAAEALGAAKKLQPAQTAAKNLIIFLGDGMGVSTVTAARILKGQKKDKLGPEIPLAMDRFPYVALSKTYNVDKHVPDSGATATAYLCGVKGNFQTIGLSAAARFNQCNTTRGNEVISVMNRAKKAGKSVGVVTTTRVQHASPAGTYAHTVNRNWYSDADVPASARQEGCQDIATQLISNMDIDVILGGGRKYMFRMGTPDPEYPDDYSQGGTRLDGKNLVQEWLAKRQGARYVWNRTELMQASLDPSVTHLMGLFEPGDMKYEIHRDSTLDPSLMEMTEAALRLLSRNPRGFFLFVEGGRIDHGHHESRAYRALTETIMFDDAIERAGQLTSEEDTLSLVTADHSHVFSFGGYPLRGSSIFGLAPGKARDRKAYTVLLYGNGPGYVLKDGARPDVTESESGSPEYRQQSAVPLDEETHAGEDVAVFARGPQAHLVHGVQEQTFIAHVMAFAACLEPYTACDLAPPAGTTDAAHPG
T6 sequence (P78556 27-96): as the sequence (P78556 27-96 limits assumed) above

B1: humanized anti-human CCL20 antibody 36LK3/36HC2 (antibody, human IgG1, kappa, V domains shown)
VH: QVQLVQSGAEVKKPGASVKVSCKASGYTFTNYWMHWVRQAPGQGLEWMGVIDPSDSYTTYAQKFQGRVTMTVDTSTSTVYMELSSLRSEDTAVYYCARGNYGVDYAMDYWGQGTLVTVSS
VL: DIQMTQSPSSLSASVGDRVTITCGASENIYGALNWYQRKPGKAPKLLIYGATNLADGVPSRFSGSGSGRDYTLTISSLQPEDFATYYCQNVLITPYTFGQGTKLEIKR
notes: expressed in HEK293 cells; also called HC2/LK3; HC2LK3
Take B1: the binding result with recombinant human CCL16 is “no binding (tested: 100 nM)”; in [3], “no binding (tested: 10 ug/ml)”; in assay [4] it was “no binding (tested: 20 nM)”. For the same molecule, the results for the “EC50 (read off the curve)” value in assay [1] and in [2] were around 6 ng/mL and around 20 ng/mL, respectively.

B2: humanized anti-human CCL20 antibody 36LC3/36HC2 (antibody, human IgG1, kappa, V domains shown)
VH: QVQLVQSGAEVKKPGASVKVSCKASGYTFTNYWMHWVRQAPGQGLEWMGVIDPSDSYTTYAQKFQGRVTMTVDTSTSTVYMELSSLRSEDTAVYYCARGNYGVDYAMDYWGQGTLVTVSS
VL: DIQMTQSPSSLSASVGDRVTITCRASENIYGALNWYQQKPGKAPKLLIYGATNLADGVPSRFSGSGSGRQYSLTISSLQPEDFATYYCQNVLITPYTFGGGTKLEIKR
notes: expressed in HEK293 cells; also called HC2/LC3; HC2LC3
As to B2, the EC50 (read off the curve) (usually the concentration that produces a half-maximal response) was around 6 ng/mL in assay [1] and around 20 ng/mL in assay [2]. Besides, the binding result in assay [3] is on record as “no binding (tested: 10 ug/ml)”; in [4] it was “no binding (tested: 20 nM)”.

B3: mouse anti-human CCL20 monoclonal antibody 36F7C10 (antibody, V domains shown)
VH: QVQLQQPGAELVKPGASVKMSCKASGYTFTNYWMHWVKQRPGQGLEWIGVIDPSDSYTTYNQKFKGKATLTVDTSSSTAYMQLSSLTSEDSAVYYCTRGNYGVDYAMDYWGQGTSVTVSS
VL: DIQMTQSPASLSASVGETVTITCGASENIYGALNWYQRKQGKSPQLLIYGATNLADGMSSRFSGSGSGRQYSLKISSLHPDDVATYYCQNVLITPYTFGGGTKLEIK
notes: Mouse hybridoma antibody; also called MouseMAb; parental mouse clone 36F7C10
As to B3, the “EC50 (read off the curve)” value is around 5 ng/mL in [1], around 9 ng/mL in assay [5], around 10 ng/mL in assay [6] and around 9 ng/mL in [7]. Further, the binding result in assay [8] is “no binding (tested: 10 ug/ml)”.

B4: chimeric 36F7C10 antibody (36F7C10-hFc) (antibody, V domains shown)
VH: QVQLQQPGAELVKPGASVKMSCKASGYTFTNYWMHWVKQRPGQGLEWIGVIDPSDSYTTYNQKFKGKATLTVDTSSSTAYMQLSSLTSEDSAVYYCTRGNYGVDYAMDYWGQGTSVTVSS
VL: DIQMTQSPASLSASVGETVTITCGASENIYGALNWYQRKQGKSPQLLIYGATNLADGMSSRFSGSGSGRQYSLKISSLHPDDVATYYCQNVLITPYTFGGGTKLEIK
notes: also called chimeric 36F710; Chimeric MAb
B4: the binding result is listed as “no binding (tested: 100 nM)” with recombinant human CCL16, “no binding (tested: 10 ug/ml)” in assay [8] and “no binding (tested: 20 nM)” in [4]. In addition, the “EC50 (read off the curve)” value in [1] is around 8 ng/mL; in [5], around 30 ng/mL; in assay [6] it was around 30 ng/mL; in assay [7] it was around 30 ng/mL.
